Laboratory results taken from the supplement of paper PMC5998384.

Columns and labels:
HeLa Kyoto [1] = experiment: melting temperature (median over replicates), in situ; higher = more thermally stable
HeLa Kyoto [2] = experiment: solubility in G1/S (NP-40 vs SDS abundance) (log2 ratio); higher = more soluble; conditions: cell cycle stage: G1/S
HeLa Kyoto [3] = experiment: solubility change mitosis vs G1/S (difference of NP-40 vs SDS log2 ratios) (log2 ratio difference); higher = more soluble in mitosis
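Wherever melting temperature (median over replicates), in situ is given: HeLa Kyoto cells synchronized by double thymidine or nocodazole block, proteins quantified by TMT10plex mass spectrometry, three independent biological replicates.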
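Wherever solubility change mitosis vs G1/S (difference of NP-40 vs SDS log2 ratios) is given: synchronized HeLa Kyoto cells (double thymidine block for G1/S, nocodazole release for mitosis), protein amounts in NP-40 versus SDS lysates quantified by mass spectrometry, three biological replicates.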
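Wherever solubility in G1/S (NP-40 vs SDS abundance) is given: HeLa Kyoto cells arrested at G1/S by double thymidine block, proteins quantified by TMT10plex mass spectrometry in mild NP-40 versus SDS extracts, three biological replicates.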

Substance: MGEIEGTYRVLQTAGMRLGAQTPVGVSTLEPGQTLLPRMQEKHLHLRVKLLDNTMEIFDIEPKCDGQVLLTQVWKRLNLVECDYFGMEFQNTQSYWIWLEPMKPIIRQIRRPKNVVLRLAVKFFPPDPGQLQEEYTRYLFALQLKRDLLEERLTCADTTAALLTSHLLQSEIGDYDETLDREHLKVNEYLPGQQHCLEKILEFHQKHVGQTPAESDFQVLEIARKLEMYGIRFHMASDREGTKIQLAVSHMGVLVFQGTTKINTFNWSKVRKLSFKRKRFLIKLHPEVHGPYQDTLEFLLGSRDECKNFWKICVEYHTFFRLLDQPKPKAKAVFFSRGSSFRYSGRTQKQLVDYFKDSGMKRIPYERRHSKTHTSVRALTADLPKQSISFPEGLRTPASPSSANAFYSLSPSTLVPSGLPEFKDSSSSLTDPQVSYVKSPAAERRSGAVAGGPDTPSAQPLGPPALQPGPGLSTKSPQPSPSSRKSPLSLSPAFQVPLGPAEQGSSPLLSPVLSDAGGAGMDCEEPRHKRVPADEAYFIVKEILATERTYLKDLEVITVWFRSAVVKEDAMPATLMTLLFSNIDPIYEFHRGFLREVEQRLALWEGPSKAHTKGSHQRIGDILLRNMRQLKEFTSYFQRHDEVLTELEKATKRCKKLEAVYKEFELQKVCYLPLNTFLLKPIQRLLHYRLLLRRLCGHYSPGHHDYADCHDALKAITEVTTTLQHILIRLENLQKLTELQRDLVGIENLIAPGREFIREGCLHKLTKKGLQQRMFFLFSDMLLYTSKGVAGTSHFRIRGLLPLQGMLVEESDNEWSVPHCFTIYAAQKTIVVAASTRLEKEKWMLDLNSAIQAAKSGGDTAPALPGRTVCTRPPRSPNEVSLEQESEDDARGVRSSLEGHGQHRANTTMHVCWYRNTSVSRADHSAAVENQLSGYLLRKFKNSHGWQKLWVVFTNFCLFFYKTHQDDYPLASLPLLGYSVSIPREADGIHKDYVFKLQFKSHVYFFRAESKYTFERWMEVIQGASSSAGRAPSIVQDGPQPSSGLEGMVRGKEE [FARP2]
- melting temperature (HeLa Kyoto [1]; cell cycle stage: mitosis): 50 °C
- solubility in G1/S (log2) (HeLa Kyoto [2]): -0.166
- solubility change mitosis (log2) (HeLa Kyoto [3]): -0.0474

Substance: RCOR3
- melting temperature (HeLa Kyoto [1]; cell cycle stage: G1/S): 49.1 °C
- melting temperature (HeLa Kyoto [1]; cell cycle stage: mitosis): 50 °C
- solubility in G1/S (log2) (HeLa Kyoto [2]): 0.375
- solubility change mitosis (log2) (HeLa Kyoto [3]): 0.101

Substance: MGLHLRPYRVGLLPDGLLFLLLLLMLLADPALPAGRHPPVVLVPGDLGNQLEAKLDKPTVVHYLCSKKTESYFTIWLNLELLLPVIIDCWIDNIRLVYNKTSRATQFPDGVDVRVPGFGKTFSLEFLDPSKSSVGSYFHTMVESLVGWGYTRGEDVRGAPYDWRRAPNENGPYFLALREMIEEMYQLYGGPVVLVAHSMGNMYTLYFLQRQPQAWKDKYIRAFVSLGAPWGGVAKTLRVLASGDNNRIPVIGPLKIREQQRSAVSTSWLLPYNYTWSPEKVFVQTPTINYTLRDYRKFFQDIGFEDGWLMRQDTEGLVEATMPPGVQLHCLYGTGVPTPDSFYYESFPDRDPKICFGDGDGTVNLKSALQCQAWQSRQEHQVLLQELPGSEHIEMLANATTLAYLKRVLLGP [PLA2G15]
- melting temperature (HeLa Kyoto [1]; cell cycle stage: G1/S): 54.7 °C
- melting temperature (HeLa Kyoto [1]; cell cycle stage: mitosis): 56.1 °C
- solubility in G1/S (log2) (HeLa Kyoto [2]): 0.446
- solubility change mitosis (log2) (HeLa Kyoto [3]): 0.0116

Substance: MDNLSSEEIQQRAHQITDESLESTRRILGLAIESQDAGIKTITMLDEQKEQLNRIEEGLDQINKDMRETEKTLTELNKCCGLCVCPCNRTKNFESGKAYKTTWGDGGENSPCNVVSKQPGPVTNGQLQQPTTGAASGGYIKRITNDAREDEMEENLTQVGSILGNLKDMALNIGNEIDAQNPQIKRITDKADTNRDRIDIANARAKKLIDS [SNAP23]
- melting temperature (HeLa Kyoto [1]; cell cycle stage: G1/S): 54.8 °C
- melting temperature (HeLa Kyoto [1]; cell cycle stage: mitosis): 54 °C
- solubility in G1/S (log2) (HeLa Kyoto [2]): -0.00465
- solubility change mitosis (log2) (HeLa Kyoto [3]): 0.381

Substance: MERFVVTAPPARNRSKTALYVTPLDRVTEFGGELHEDGGKLFCTSCNVVLNHVRKSAISDHLKSKTHTKRKAEFEEQNVRKKQRPLTASLQCNSTAQTEKVSVIQDFVKMCLEANIPLEKADHPAVRAFLSRHVKNGGSIPKSDQLRRAYLPDGYENENQLLNSQDC [CGGBP1]
- melting temperature (HeLa Kyoto [1]; cell cycle stage: G1/S): 51.7 °C
- melting temperature (HeLa Kyoto [1]; cell cycle stage: mitosis): 51.8 °C
- solubility in G1/S (log2) (HeLa Kyoto [2]): 0.332
- solubility change mitosis (log2) (HeLa Kyoto [3]): 0.0407

Substance: MRESALERGPVPEAPAGGPVHAVTVVTLLEKLASMLETLRERQGGLARRQGGLAGSVRRIQSGLGALSRSHDTTSNTLAQLLAKAERVSSHANAAQERAVRRAAQVQRLEANHGLLVARGKLHVLLFKEEGEVPASAFQKAPEPLGPADQSELGPEQLEAEVGESSDEEPVESRAQRLRRTGLQKVQSLRRALSGRKGPAAPPPTPVKPPRLGPGRSAEAQPEAQPALEPTLEPEPPQDTEEDPGRPGAAEEALLQMESVA [PRKCDBP]
- melting temperature (HeLa Kyoto [1]; cell cycle stage: G1/S): 53.9 °C
- melting temperature (HeLa Kyoto [1]; cell cycle stage: mitosis): 52.8 °C
- solubility in G1/S (log2) (HeLa Kyoto [2]): 0.305
- solubility change mitosis (log2) (HeLa Kyoto [3]): 0.338

Substance: MDLHMMNCELLATCSALGYLEGDTYHKEPDCLESVKDLIRYLRHEDETRDVRQQLGAAQILQSDLLPILTQHHQDKPLFDAVIRLMVNLTQPALLCFGNLPKEPSFRHHFLQVLTYLQAYKEAFASEKAFGVLSETLYELLQLGWEERQEEDNLLIERILLLVRNILHVPADLDQEKKIDDDASAHDQLLWAIHLSGLDDLLLFLASSSAEEQWSLHVLEIVSLMFRDQNPEQLAGVGQGRLAQERSADFAELEVLRQREMAEKKTRALQRGNRHSRFGGSYIVQGLKSIGERDLIFHKGLHNLRNYSSDLGKQPKKVPKRRQAARELSIQRRSALNVRLFLRDFCSEFLENCYNRLMGSVKDHLLREKAQQHDETYYMWALAFFMAFNRAASFRPGLVSETLSVRTFHFIEQNLTNYYEMMLTDRKEAASWARRMHLALKAYQELLATVNEMDISPDEAVRESSRIIKNNIFYVMEYRELFLALFRKFDERCQPRSFLRDLVETTHLFLKMLERFCRSRGNLVVQNKQKKRRKKKKKVLDQAIVSGNVPSSPEEVEAVWPALAEQLQCCAQNSELSMDSVVPFDAASEVPVEEQRAEAMVRIQDCLLAGQAPQALTLLRSAREVWPEGDVFGSQDISPEEEIQLLKQILSAPLPRQQGPEERGAEEEEEEEEEEEEELQVVQVSEKEFNFLDYLKRFACSTVVRAYVLLLRSYQQNSAHTNHCIVKMLHRLAHDLKMEALLFQLSVFCLFNRLLSDPAAGAYKELVTFAKYILGKFFALAAVNQKAFVELLFWKNTAVVREMTEGYGSLDDRSSSRRAPTWSPEEEAHLRELYLANKDVEGQDVVEAILAHLNTVPRTRKQIIHHLVQMGLADSVKDFQRKGTHIVLWTGDQELELQRLFEEFRDSDDVLGHIMKNITAKRSRARIVDKLLALGLVAERRELYKKRQKKLASSILPNGAESLKDFCQEDLEEEENLPEEDSEEEEEGGSEAEQVQGSLVLSNENLGQSLHQEGFSIPLLWLQNCLIRAADDREEDGCSQAVPLVPLTEENEEAMENEQFQQLLRKLGVRPPASGQETFWRIPAKLSPTQLRRAAASLSQPEEEQKLQPELQPKVPGEQGSDEEHCKEHRAQALRALLLAHKKKAGLASPEEEDAVGKEPLKAAPKKRQLLDSDEEQEEDEGRNRAPELGAPGIQKKKRYQIEDDEDD [TIMELESS]
- melting temperature (HeLa Kyoto [1]; cell cycle stage: G1/S): 49.5 °C
- melting temperature (HeLa Kyoto [1]; cell cycle stage: mitosis): 49.2 °C
- solubility in G1/S (log2) (HeLa Kyoto [2]): -0.204
- solubility change mitosis (log2) (HeLa Kyoto [3]): -0.0762

Substance: MAERGRKRPCGPGEHGQRIEWRKWKQQKKEEKKKWKDLKLMKKLERQRAQEEQAKRLEEEEAAAEKEDRGRPYTLSVALPGSILDNAQSPELRTYLAGQIARACAIFCVDEIVVFDEEGQDAKTVEGEFTGVGKKGQACVQLARILQYLECPQYLRKAFFPKHQDLQFAGLLNPLDSPHHMRQDEESEFREGIVVDRPTRPGHGSFVNCGMKKEVKIDKNLEPGLRVTVRLNQQQHPDCKTYHGKVVSSQDPRTKAGLYWGYTVRLASCLSAVFAEAPFQDGYDLTIGTSERGSDVASAQLPNFRHALVVFGGLQGLEAGADADPNLEVAEPSVLFDLYVNTCPGQGSRTIRTEEAILISLAALQPGLIQAGARHT [C9ORF114]
- melting temperature (HeLa Kyoto [1]; cell cycle stage: mitosis): 51.8 °C
- solubility in G1/S (log2) (HeLa Kyoto [2]): -1.68
- solubility change mitosis (log2) (HeLa Kyoto [3]): 0.696

Substance: MTTKDYPSLWGFGTTKTFKIPIEHLDFKYIEKCSDVKHLEKILCVLRSGEEGYYPELTEFCEKHLQALAPESRALRKDKPAATAASFTAEEWEKIDGDIKSWVSEIKKEEDKMHFHETETFPAMKDNLPPVRGSNSCLHVGKEKYSKRPTKKKTPRDYAEWDKFDVEKECLKIDEDYKEKTVIDKSHLSKIETRIDTAGLTEKEKDFLATREKEKGNEAFNSGDYEEAVMYYTRSISALPTVVAYNNRAQAEIKLQNWNSAFQDCEKVLELEPGNVKALLRRATTYKHQNKLREATEDLSKVLDVEPDNDLAKKTLSEVERDLKNSEAASETQTKGKRMVIQEIENSEDEEGKSGRKHEDGGGDKKPAEPAGAARAAQPCVMGNIQKKLTGKAEGGKRPARGAPQRGQTPEAGADKRSPRRASAAAAAGGGATGHPGGGQGAENPAGLKSQGNELFRSGQFAEAAGKYSAAIALLEPAGSEIADDLSILYSNRAACYLKEGNCSGCIQDCNRALELHPFSMKPLLRRAMAYETLEQYGKAYVDYKTVLQIDCGLQLANDSVNRLSRILMELDGPNWREKLSPIPAVPASVPLQAWHPAKEMISKQAGDSSSHRQQGITDEKTFKALKEEGNQCVNDKNYKDALSKYSECLKINNKECAIYTNRALCYLKLCQFEEAKQDCDQALQLADGNVKAFYRRALAHKGLKNYQKSLIDLNKVILLDPSIIEAKMELEEVTRLLNLKDKTAPFNKEKERRKIEIQEVNEGKEEPGRPAGEVSMGCLASEKGGKSSRSPEDPEKLPIAKPNNAYEFGQIINALSTRKDKEACAHLLAITAPKDLPMFLSNKLEGDTFLLLIQSLKNNLIEKDPSLVYQHLLYLSKAERFKMMLTLISKGQKELIEQLFEDLSDTPNNHFTLEDIQALKRQYEL [SPAG1]
- melting temperature (HeLa Kyoto [1]; cell cycle stage: G1/S): 49.2 °C
- melting temperature (HeLa Kyoto [1]; cell cycle stage: mitosis): 48.5 °C
- solubility in G1/S (log2) (HeLa Kyoto [2]): 0.51
- solubility change mitosis (log2) (HeLa Kyoto [3]): -0.0757

Substance: MANSANTNTVPKLYRSVIEDVINDVRDIFLDDGVDEQVLMELKTLWENKLMQSRAVDGFHSEEQQLLLQVQQQHQPQQQQHHHHHHHQQAQPQQTVPQQAQTQQVLIPASQQATAPQVIVPDSKLIQHMNASNMSAAATAATLALPAGVTPVQQILTNSGQLLQVVRAANGAQYIFQPQQSVVLQQQVIPQMQPGGVQAPVIQQVLAPLPGGISPQTGVIIQPQQILFTGNKTQVIPTTVAAPTPAQAQITATGQQQPQAQPAQTQAPLVLQVDGTGDTSSEEDEDEEEDYDDDEEEDKEKDGAEDGQVEEEPLNSEDDVSDEEGQELFDTENVVVCQYDKIHRSKNKWKFHLKDGIMNLNGRDYIFSKAIGDAEW [GTF2A1]
- melting temperature (HeLa Kyoto [1]; cell cycle stage: G1/S): 56.2 °C
- melting temperature (HeLa Kyoto [1]; cell cycle stage: mitosis): 57.2 °C
- solubility in G1/S (log2) (HeLa Kyoto [2]): -0.719
- solubility change mitosis (log2) (HeLa Kyoto [3]): 0.475

Substance: MVTEQEVDAIGQTLVDPKQPLQARFRALFTLRGLGGPGAIAWISQAFDDDSALLKHELAYCLGQMQDARAIPMLVDVLQDTRQEPMVRHEAGEALGAIGDPEVLEILKQYSSDPVIEVAETCQLAVRRLEWLQQHGGEPAAGPYLSVDPAPPAEERDVGRLREALLDESRPLFERYRAMFALRNAGGEEAALALAEGLHCGSALFRHEVGYVLGQLQHEAAVPQLAAALARCTENPMVRHECAEALGAIARPACLAALQAHADDPERVVRESCEVALDMYEHETGRAFQYADGLEQLRGAPS [DOHH]
- melting temperature (HeLa Kyoto [1]; cell cycle stage: G1/S): 50.3 °C
- melting temperature (HeLa Kyoto [1]; cell cycle stage: mitosis): 50.6 °C
- solubility in G1/S (log2) (HeLa Kyoto [2]): 0.137
- solubility change mitosis (log2) (HeLa Kyoto [3]): 0.308
